The values that follow come from FireProtDB (doi:10.1021/bi010565n).

The conditions of the data set: Aspergillus oryzae (strain ATCC 42149 / RIB 40), pH 7, Thermal, MOPS 30 mM, reversible: yes(0.94), whole UniProt chain shown.

What is called Tm is the temperature at the midpoint of the melting transition.

B1: Guanyl-specific ribonuclease T1 wild type, P00651 (protein)
chain: MMYSKLLTLTTLLLPTALALPSLVERACDYTCGSNCYSSSDVSTAQAAGYQLHEDGETVGSNSYPHKYNNYEGFDFSVSSPYYEWPILSSGDVYSGGSPGADRVVFNENNQLAGVITHTGASGNNFVECT
Consider B1, for which the Tm is, setting by setting: (CD) 51.2 °C; (DSC) 51.5 °C.
